Data taken from patent US20260015403A1 (LENTIGEN TECHNOLOGY, published 2026).

target: T1, BCMA on BCMA-positive multiple myeloma tumor lines RPMI-8226 and MM1.S (human, UniProt Q02223 1-184); assay: cell-based or functional assay
T1 sequence (looked up): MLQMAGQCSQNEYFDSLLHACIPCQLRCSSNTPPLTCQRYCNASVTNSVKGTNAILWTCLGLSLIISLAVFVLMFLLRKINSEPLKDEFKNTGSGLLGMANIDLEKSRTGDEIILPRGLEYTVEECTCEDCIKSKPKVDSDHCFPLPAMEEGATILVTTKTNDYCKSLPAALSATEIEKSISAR

Binder | tumor lysis of RPMI-8226-luc, luciferase-based killing assay, E:T 5
BCMA CAR construct with ScFv sequence 49 (MTB-49) (other, not shown: large carriers) EVQLVESGGGVVQPGRSLRLSCAASGFTFSSYGMHWVRQAPGKGLEWVAFIRYDGSNKYYADSVKGRFTISRDNSKNTLYLQMNSLRAEDTAVYYCVSDDYGGNSGTSYWGQGTLVTVSSGGGGSGGGGSGGGGSDIQMTQSPSSLSASVGDRVTITCQASQDISNYLNWYQQKPGKAPKLLIYDASNLETGVPSRFSGSGSGTDFTLTISSLQPEDFATYYCQQSYSTPVTFGGGTKLTVLG | > 40%
BCMA CAR construct with ScFv sequence 14 (MTB-14) (other, not shown: large carriers) EVQLVESGGGVVQPGRSLRLSCAASGFTFSSYGMHWVRQAPGKGLEWVAFIRYDGSNKYYADSVKGRFTISRDNSKNTLYLQMNSLRAEDTAVYYCVSDDYGGNSGTSYWGQGTLVTVSSGGGGSGGGGSGGGGSDIQMTQSPSSLSASVGDRVTITCQASQDISNYLNWYQQKPGKAPKLLIYDASNLETGVPSRFSGSGSGTDFTLTISSLQPEDFATYYCQQSYSTPVTFGGGTKLTVLG | > 40%
BCMA CAR construct with ScFv sequence 50 (MTB-50) (other, not shown: large carriers) EVQLVQSGGGVVRPGGSLRLSCAASGFTFSTYEMNWVRQAPGKGLEWLAYIGGSGSPIYYADSVRGRFTISRDNTKNSLFLQMSSLRAEDTAVYYCVEGWFDKWGLGTLVTVSSGGGGSGGGGSGGGGSDIQLTQSPSTLSASVGDRVTITCRASQSISSYLNWYQQKPGKAPKLLIYDASNLETGVPSRFSGSGSGTDFTLTISSLQPEDFATYYCQQSYSTPYTFGQGTKLEIKR | > 40%
BCMA CAR construct with ScFv sequence 3 (MTB-3) (other, not shown: large carriers) EVQLVESGGGVVQPGGSLRLSCAASGFTFSSYGMHWVRQAPGKGLEWVAFIRYDGSNKYYADSVKGRFTISRDNSKNTLYLQMNSLRAEDTAVYYCAKDDYGGNSEGDYWGQGTLVTVSSGGGGSGGGGSGGGGSEIVLTQSPATLSVSLGERATLSCRASQSVSNSLAWYQQKPGQAPRLLIYDASTRATGIPARFSGSGSGTEFTLTISSLQPEDFATYFCQQTYSPPITFGQGTRLEIKR | > 40%
CAR D0086 (Ef1a-BCMA sequence 37 CD8 BBz) (other) EVQLVESGGGLVKPGGSLRLSCAASGFTFSSYGMHWVRQAPGKGLEWVAFIRYDGSNKYYADSVKGRFTISRDNSKNTLYLQMNSLRAEDTAVYYCAKDWEYSGYDAHPGWGQGTLVTVSSGGGGSGGGGSGGGGSDIQLTQSPSSLSASVGDRVTITCRASQGISSALAWYQQKPGKAPKLLIYDASSLESGVPSRFSGSGSGTEFTLTISSLQPEDFATYFCQQTYSPPITFGQGTRLEIKRAAATTTPAPRPPTPAPTIASQPLSLRPEACRPAAGGAVHTRGLDFACDIYIWAPLAGTCGVLLLSLVITLYCKRGRKKLLYIFKQPFMRPVQTTQEEDGCSCRFPEEEEGGCELRVKFSRSADAPAYQQGQNQLYNELNLGRREEYDVLDKRRGRDPEMGGKPRRKNPQEGLYNELQKDKMAEAYSEIGMKGERRRGKGHDGLYQGLSTATKDTYDALHMQALPPR | > 40%
CAR D0100 (Ef1a-BCMA sequence 4-45 CD8 BBz) (other) EVQLVQSGAEVKKPGASVKVSCKASGYTSTSYYMHWVRQAPGQGLEWMGIINPSGGSTSYAQKFQGRVTMTRDTSTSTVYMELSSLRSEDTAVYYCARDLGDGAFDIWGQGTMVTVSSGGGGSGGGGSGGGGSDIQMTQSLSSLSASVGDRVTIACRASQTISRYLNWYQQKPGKAPKLLIYAASSLQSGVSSRFSGSGSGTEFTLTISSLQPEDFATYFCQQTYSPPITFGQGTRLEIKRAAATTTPAPRPPTPAPTIASQPLSLRPEACRPAAGGAVHTRGLDFACDIYIWAPLAGTCGVLLLSLVITLYCKRGRKKLLYIFKQPFMRPVQTTQEEDGCSCRFPEEEEGGCELRVKFSRSADAPAYQQGQNQLYNELNLGRREEYDVLDKRRGRDPEMGGKPRRKNPQEGLYNELQKDKMAEAYSEIGMKGERRRGKGHDGLYQGLSTATKDTYDALHMQALPPR | > 40%
CAR D0099 (Ef1a-BCMA sequence 4-12 CD8 BBz) (other) QVQLVQSGGGVVQPGGSLRLSCAASGFTFSSYVIHWVRQAPGKGLEWVAAISHDGSNKYYADSVKGRFTISRDNSKNTLYLQMSSLSAEDTAMYYCVKTSSDYYYAYWGQGTLVTVSSGGGGSGGGGSGGGGSQTVVTQEPSFSVSPGGTVTLTCGLSSGSVSTGNSPTWYQQTPGQAPRTLIYSTNTRSSGVPDRFSGSILGNKAALTITGAQADDESDYYCVLYMGSGYWVFGGGTKVTVLGAAATTTPAPRPPTPAPTIASQPLSLRPEACRPAAGGAVHTRGLDFACDIYIWAPLAGTCGVLLLSLVITLYCKRGRKKLLYIFKQPFMRPVQTTQEEDGCSCRFPEEEEGGCELRVKFSRSADAPAYQQGQNQLYNELNLGRREEYDVLDKRRGRDPEMGGKPRRKNPQEGLYNELQKDKMAEAYSEIGMKGERRRGKGHDGLYQGLSTATKDTYDALHMQALPPR | > 40%
CAR D0085 (Ef1a-BCMA sequence 16 CD8 BBz) (other) EVQLVQSGGGVVQPGGSLRLSCAASGFTFSSYGMHWVRQAPGKGLEWVAFIRYDGSNKYYADSVKGRFTISRDNSKNTLYLQMNSLRAEDTAVYYCARDLNDYGDPPPYWGQGTLVTVSSGGGGSGGGGSGGGGSDIQMTQSPSSLSASVGDRVTITCRASQSISSYLNWYQQKPGKAPKLLIYDASNLETGVSSRFSGSGSGTEFTLTISSLQPEDFATYFCQQTYSPPITFGQGTRLEIKRAAATTTPAPRPPTPAPTIASQPLSLRPEACRPAAGGAVHTRGLDFACDIYIWAPLAGTCGVLLLSLVITLYCKRGRKKLLYIFKQPFMRPVQTTQEEDGCSCRFPEEEEGGCELRVKFSRSADAPAYQQGQNQLYNELNLGRREEYDVLDKRRGRDPEMGGKPRRKNPQEGLYNELQKDKMAEAYSEIGMKGERRRGKGHDGLYQGLSTATKDTYDALHMQALPPR | > 40%
BCMA CAR construct with ScFv sequence 2 (MTB-2) (other, not shown: large carriers) EVQLVQSGGGLVQPGGSLRLSCAASGFTFSSYWMSWVRQAPGKGLEWVSGINGSGDRTYYADSVKGRFTISRDNSKNTLYLQMNSLRAEDTAVYYCANYNYDDNSGYGLGQGTLVTVSSGGGGSGGGGSGGGGSQSVLTQPPSVSVAPGKTARITCGGNNIGSKSVHWYQQKPGQAPVLVIYDDSDRPSGIPERFSGSNSGNTATLTISRVEAGDEADYYCQVWDSSSDHWVFGGGTKVTVLG | ≤ 40%
CAR D0087 (Ef1a-BCMA sequence 40 CD8 BBz) (other) EVQLVQSGGGVVQPGGSLRLSCAASGFTFSSYGMHWVRQAPGKGLEWVAFIRYDGSNKYYADSVKGRFTISRDNSKNTLYLQMNSLRAEDTAVYYCAKEPPEYYYDSSGYSWGQGTLVTVSSGGGGSGGGGSGGGGSDIQLTQSPSSLSASVGDRVTITCQASQDIDTYLNWYQQKPGKAPKLLIYAASSLQSGVSSRFSGSGSGTEFTLTISSLQPEDFATYFCQQTYSPPITFGQGTRLEIKRAAATTTPAPRPPTPAPTIASQPLSLRPEACRPAAGGAVHTRGLDFACDIYIWAPLAGTCGVLLLSLVITLYCKRGRKKLLYIFKQPFMRPVQTTQEEDGCSCRFPEEEEGGCELRVKFSRSADAPAYQQGQNQLYNELNLGRREEYDVLDKRRGRDPEMGGKPRRKNPQEGLYNELQKDKMAEAYSEIGMKGERRRGKGHDGLYQGLSTATKDTYDALHMQALPPR | > 40%
BCMA CAR construct with ScFv sequence 39 (MTB-39) (other, not shown: large carriers) EVQLVESGGGVVQPGGSLRLSCAASGFTFSGYGMHWVRQAPGKGLEWVAFIRYDGSNKYYADSVKGRFTISRDNSKNTLYLQMNSLRAEDTAVYYCARDGARNDYWGQGTLVTVSSGGGGSGGGGSGGGGSNFMLTQPHSVSESPGKTVTISCTRSSGSIASNYVQWYQQRPGSAPTTVIYEDNQRPSGVPDRFSGSIDSSSNSASLTISGLKTEDEADYYCQTYDDNNHVIFGGGTQLTVLG | > 40%
BCMA CAR construct with ScFv sequence 28 (MTB-28) (other, not shown: large carriers) QVQLVESGGGVVQPGGSLRLSCAASGFTFSSYGMHWVRQAPGKGLEWVAFIRYDGSNKYYADSVKGRFTISRDNSKNTLYLQMNSLRAEDTAVYYCARDSYSSSGDPRAFDPWGQGTLVTVSSGGGGSGGGGSGGGGSNFMLTQPHSVSESPGKTVTISCTGSSGSIASNYVQWYQQRPGSAPSTVIFEDNQRPSGVPGRFSGSVDRSSNSASLTISGLKTEDEADYYCQSYDSNNRGLFGGGTKVTVLG | > 40%

target: T2, recombinant human BCMA (ectodomain)-Fc (human, UniProt Q02223 1-54); assay: flow cytometry of transduced T cells; staining with recombinant human BCMA Fc chimera then anti-Fc-Alexa Fluor 647 (method in paragraph 320)
T2 construct: extracellular domain; also called BCMA-Fc; BCMA-Fc peptide; not shown: Fc part
T2 sequence (looked up): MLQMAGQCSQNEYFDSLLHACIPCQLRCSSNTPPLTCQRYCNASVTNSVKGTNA
Description: To assess the cell surface expression of BCMA CARs, 0.5-1e6 CAR T-cells were resuspended in FACs buffer (Miltenyi Biotec's autoMACS Rinsing Solution+MACS BSA Stock Solution) and incubated with 0.5 ug of recombinant human BCMA Fc Chimera Protein (RNDsystems) for 20 mins at 4° C. Cells were washed twice and re-suspended in FACs buffer and incubated for 20 mins at 4° C. with anti-Fc-Alexa Fluor 647 at 1:200 dilution. Cells were again washed twice and resuspended in FACs buffer and incubated for 20 mins at 4° C. with anti-CD4-Vioblue or anti-CD8-Viogreen (Miltenyi Biotec) at 1:50 dilution and 7AAD at 1:20 dilution. Cells were subsequently washed and analyzed using the MACSQuant® Analyzer 10 flow cytometer (Miltenyi Biotec).

Binder | binding result
CAR D0153 (BCMA 4-1c CD8 BBz) (other, Chimeric antigen receptor on transduced human primary T cells; also called D153; CAR D153) EVQLVETGGGVVQPGGSLRLSCAASGFTFSSYGMHWVRQAPGKGLEWVAFIRYDGSNKYYADSVKGRFTISRDNSKNTLYLQMNSLRAEDTAVYYCAKDWDTYYYDSSGYDRAWGQGTLVTVSSGGGGSGGGGSGGGGSDIQMTQSPSSLSASVGDRVTITCQASQDINNYLNWYQQKPGKAPKLLIYAASSLQSGVSSRFSGSGSGTEFTLTISSLQPEDFATYFCQQTYSPPITFGQGTRLEIKRAAATTTPAPRPPTPAPTIASQPLSLRPEACRPAAGGAVHTRGLDFACDIYIWAPLAGTCGVLLLSLVITLYCKRGRKKLLYIFKQPFMRPVQTTQEEDGCSCRFPEEEEGGCELRVKFSRSADAPAYQQGQNQLYNELNLGRREEYDVLDKRRGRDPEMGGKPRRKNPQEGLYNELQKDKMAEAYSEIGMKGERRRGKGHDGLYQGLSTATKDTYDALHMQALPPR | binds
